According to publication PMC11077437:

Tests used:
[1] = molecular target: T1, human CS1 on CS1pos OPM2 multiple myeloma cells (human (endogenous in OPM2)) (UniProt Q9NQ25)
T1 sequence: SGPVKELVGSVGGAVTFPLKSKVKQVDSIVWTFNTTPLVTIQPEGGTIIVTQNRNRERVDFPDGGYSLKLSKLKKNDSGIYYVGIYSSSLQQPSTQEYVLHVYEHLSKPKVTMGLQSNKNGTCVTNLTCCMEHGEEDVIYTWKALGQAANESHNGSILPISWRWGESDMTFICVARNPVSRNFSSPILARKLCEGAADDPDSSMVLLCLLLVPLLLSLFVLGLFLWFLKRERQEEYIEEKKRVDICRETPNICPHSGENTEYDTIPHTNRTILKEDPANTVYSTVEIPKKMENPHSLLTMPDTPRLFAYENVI

[2] = molecular target: T1, human CS1 on CS1pos OPM2 multiple myeloma cells (human (endogenous in OPM2)); assay: flow cytometry on cells; purified VHH at 200 nM, 1 h at 4°C, on CS1pos OPM2 cells; detected by mouse anti-His IgG1 mAb and APC anti-mouse IgG1 mAb; ΔMFI against the non-targeting control VHH R3B23 at 200 nM; n=1
[3] = molecular target: T2, recombinant human CS1 protein (CS1-(his)C) (human) (UniProt Q9NQ25); assay: SPR; Biacore T200; recombinant CS1 amine-coupled on a CM5 chip; VHH 100 nM to 3.125 nM in HBS pH 7.4, 25°C; association 180 s, dissociation 300 s; fit '1:1 binding with drift and RI2'; n=1
T2 sequence: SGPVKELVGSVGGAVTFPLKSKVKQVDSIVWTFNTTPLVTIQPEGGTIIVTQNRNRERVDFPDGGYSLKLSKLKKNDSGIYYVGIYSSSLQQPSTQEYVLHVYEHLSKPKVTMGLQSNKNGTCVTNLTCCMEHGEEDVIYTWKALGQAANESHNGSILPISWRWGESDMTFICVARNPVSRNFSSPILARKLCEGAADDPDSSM

tumor uptake of the 99mTc-labelled VHH in subcutaneous CS1pos OPM2 tumors in mice, ex vivo at 90 min p.i. (n=3) [1]: 0.48 % IA/g | ΔMFI [VHH] = 200 nM [2]: 6.09 | Kd [3]: 49.7 nM | koff [3]: 0.0318 s⁻¹ | kon [3]: 641000 M⁻¹ s⁻¹
B1: VHH-2 (VHH)
VHH: DVQLVESGGGLVQPGDSLRLSCTASGRTFENNFMGWFRQPPGKEREFVAAVGWNTGRGYYTDSVKGRFTISRDSAKNTVYLQMNSLKPEDTAVYSCNAPLQSLDRRLPGPYWGQGTQVTVSS
